US20020076765A1 (IOWA STATE UNIVERSITY RESEARCH FOUNDATION, published 2002)

B1: soluble bovine tumor necrosis factor receptor-I (TNF-RI) (receptor)
chain: LVPHPGDLEKRESPCPQGKYNHPQNSTICCTKCHKGTYLYNDCPGPGRDTDCRVCAPGTYTALENHLRRCLSCSRCRDEMFQVEISPCVVDRDTVCGCRKNQYREYWGETGFRCLNCSLCPNGTVNIPCQERQDTICHCHMGFFLKGAKCISCHDCKNKECEKLCPTRPSTGKDSQDPGTT
B2: bovine tumor necrosis factor-alpha (TNF-alpha) (ligand, UniProt Q06599 78-234, looked up)
chain: LRSSSQASSNKPVAHVVADINSPGQLRWWDSYANALMANGVKLEDNQLVVPADGLYLIYSQVLFRGQGCPSTPLFLTHTISRIAVSYQTKVNILSAIKSPCHRETPEWAEAKPWYEPIYQGGVFQLEKGDRLSAEINLPDYLDYAESGQVYFGIIAL
notes: Not purified; The whey samples served as the source of bovine TNF-alpha; also called bovine TNF-α; bovine TNF

Key:
[1] = target: B2; test: cell-based or functional assay
[2] = target: B1; test: inferred from the TNF cytotoxicity inhibition assay on WEHI 164 cells; no direct binding assay

Binder | fold potency at blocking bovine TNF-α, against MAb BC9 [1] | binding result [2]
B1 | > 2 fold (vs MAb BC9) | –
B2 | – | binds
